Biological target: HIV-1 envelope glycoprotein gp120 (UniProt P04578)

For trypsin, the “saturability of trypsin-catalyzed gp120 cleavage with gp120 concentration” value was “nonsaturable at concentrations up to 1 µM”.

Reference: patent US7960364
